Consider 125 sequences from the supplement of paper PMC9112550, “Optimization of the antimicrobial peptide Bac7 by deep mutational scanning” (BMC Biology, 2022).

The data set deals with Escherichia coli TOP10. Briefly: shrunken log2 fold change of peptide-encoding DNA abundance (4.5 h post-induction vs induction); higher = less antimicrobial activity (less host growth inhibition). To be noted: time post-induction: 4.5 h; library: site-saturation at positions 5, 18, 19, 20.
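Further: peptides expressed intracellularly from a pBAD plasmid library in pooled LB shake-flask culture, induced with 0.3% L-arabinose, DNA abundance read by NGS, three biological replicates, DESeq2 with apeglm shrinkage.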

Turning to RRIRQRPPRLPRPRPRPCRHPRP, the “shrunken log2 fold change” value is -0.000946.
Take RRIRMRPPRLPRPRPRPCNQPRP: the “shrunken log2 fold change” value was -0.0399.
Then RRIRLRPPRLPRPRPRPPCFPRP, with 0.242.
For the sequence RRIRMRPPRLPRPRPRPPKKPRP, the “shrunken log2 fold change” value came out at 1.01.
For the sequence RRIRDRPPRLPRPRPRPLDAPRP, the “shrunken log2 fold change” value was determined as 0.0602.
For the sequence RRIRARPPRLPRPRPRPSMVPRP, the “shrunken log2 fold change” value is -0.263.
For the sequence RRIRVRPPRLPRPRPRPQGLPRP, the “shrunken log2 fold change” value is -0.29.
For the sequence RRIRSRPPRLPRPRPRPSKMPRP, the “shrunken log2 fold change” value was -0.0555.
Then RRIRLRPPRLPRPRPRPELAPRP, with 0.0176.
With RRIRMRPPRLPRPRPRPRYAPRP, the “shrunken log2 fold change” value was 0.467.
For RRIRWRPPRLPRPRPRPIWWPRP, the “shrunken log2 fold change” value was found to be 0.314.
In the case of RRIRPRPPRLPRPRPRPAMFPRP, the “shrunken log2 fold change” value was 0.0516.
Regarding RRIRVRPPRLPRPRPRPYWGPRP, the “shrunken log2 fold change” value was -0.526.
Take RRIRNRPPRLPRPRPRPKWRPRP: the “shrunken log2 fold change” value came out at 0.792.
The figure for RRIRGRPPRLPRPRPRPRPKPRP is 1.41; for RRIRVRPPRLPRPRPRPNCDPRP it is -0.356; for RRIRGRPPRLPRPRPRPRKQPRP it is 0.875.
RRIRKRPPRLPRPRPRPMHYPRP: the “shrunken log2 fold change” value is -0.0252.
On to RRIRIRPPRLPRPRPRPWRSPRP, for which the “shrunken log2 fold change” value worked out at 0.00683.
Turning to RRIRIRPPRLPRPRPRPCYTPRP, the “shrunken log2 fold change” value is -0.128.
For the sequence RRIRVRPPRLPRPRPRPMAGPRP, the “shrunken log2 fold change” value is -0.00674.
For the sequence RRIRPRPPRLPRPRPRPMMEPRP, the “shrunken log2 fold change” value came to 0.0824.
For RRIRLRPPRLPRPRPRPWRTPRP, the “shrunken log2 fold change” value was 0.0595.
Turning to RRIRHRPPRLPRPRPRPYAAPRP, the “shrunken log2 fold change” value was -0.519.
On to RRIRDRPPRLPRPRPRPSGIPRP, for which the “shrunken log2 fold change” value was -0.0212.
Take RRIRCRPPRLPRPRPRPIEKPRP: the “shrunken log2 fold change” value was -0.0167.
Regarding RRIRTRPPRLPRPRPRPYEIPRP, the “shrunken log2 fold change” value was -0.453.
As to RRIRKRPPRLPRPRPRPMKNPRP, the “shrunken log2 fold change” value worked out at 0.212.
As for RRIRGRPPRLPRPRPRPDGFPRP, the “shrunken log2 fold change” value was determined as 0.171.
Take RRIRSRPPRLPRPRPRPRRMPRP: the “shrunken log2 fold change” value stood at 0.141.
Consider RRIRTRPPRLPRPRPRPYEPPRP, for which the “shrunken log2 fold change” value was -0.18.
For RRIRSRPPRLPRPRPRPLCKPRP, the “shrunken log2 fold change” value is -0.137.
Regarding RRIRWRPPRLPRPRPRPWGQPRP, the “shrunken log2 fold change” value is -0.0525.
As for RRIRSRPPRLPRPRPRPFQMPRP, the “shrunken log2 fold change” value is 0.00561.
The figure for RRIRCRPPRLPRPRPRPSWSPRP is -0.263; for RRIRARPPRLPRPRPRPEFCPRP it is 0.83.
As for RRIRIRPPRLPRPRPRPMYSPRP, the “shrunken log2 fold change” value is -0.11.
As for RRIRHRPPRLPRPRPRPKMRPRP, the “shrunken log2 fold change” value worked out at 0.312.
On to RRIRQRPPRLPRPRPRPYLTPRP, for which the “shrunken log2 fold change” value is -0.209.
As for RRIRLRPPRLPRPRPRPTTMPRP, the “shrunken log2 fold change” value was -0.439.
As to RRIRPRPPRLPRPRPRPCDMPRP, the “shrunken log2 fold change” value was -0.217.
For the sequence RRIRSRPPRLPRPRPRPGEYPRP, the “shrunken log2 fold change” value was -0.275.
For RRIRERPPRLPRPRPRPSHCPRP, the “shrunken log2 fold change” value was 0.0392.
The figure for RRIRGRPPRLPRPRPRPRDSPRP is 0.257; for RRIRVRPPRLPRPRPRPIQHPRP it is -0.415.
With RRIRSRPPRLPRPRPRPWAKPRP, the “shrunken log2 fold change” value is -0.00197.
RRIRFRPPRLPRPRPRPSNIPRP: the “shrunken log2 fold change” value was -0.864.
Consider RRIRLRPPRLPRPRPRPWEDPRP, for which the “shrunken log2 fold change” value came to 0.0824.
Turning to RRIRFRPPRLPRPRPRPPDIPRP, the “shrunken log2 fold change” value is -0.329.
Turning to RRIRIRPPRLPRPRPRPQMHPRP, the “shrunken log2 fold change” value is -0.494.
The figure for RRIRARPPRLPRPRPRPSFEPRP is 0.327; for RRIRLRPPRLPRPRPRPPMKPRP it is -0.144; for RRIRMRPPRLPRPRPRPQMAPRP it is 0.349.
RRIRSRPPRLPRPRPRPTRVPRP: the “shrunken log2 fold change” value stood at 0.872.
On to RRIRMRPPRLPRPRPRPFHIPRP, for which the “shrunken log2 fold change” value is -0.269.
With RRIRPRPPRLPRPRPRPMSHPRP, the “shrunken log2 fold change” value is 0.0914.
Turning to RRIRRRPPRLPRPRPRPPNNPRP, the “shrunken log2 fold change” value came out at 0.177.
The figure for RRIRQRPPRLPRPRPRPMSAPRP is -0.107.
With RRIRMRPPRLPRPRPRPLDMPRP, the “shrunken log2 fold change” value is 0.167.
Turning to RRIRLRPPRLPRPRPRPRVEPRP, the “shrunken log2 fold change” value was found to be 0.174.
In the case of RRIRSRPPRLPRPRPRPWWIPRP, the “shrunken log2 fold change” value worked out at 0.0584.
As for RRIRIRPPRLPRPRPRPEILPRP, the “shrunken log2 fold change” value was -0.0902.
Turning to RRIRPRPPRLPRPRPRPKCGPRP, the “shrunken log2 fold change” value is 0.574.
The figure for RRIRLRPPRLPRPRPRPAMKPRP is -0.0543.
The figure for RRIRMRPPRLPRPRPRPWEVPRP is -0.00931.
As for RRIRLRPPRLPRPRPRPMDMPRP, the “shrunken log2 fold change” value is -0.384.
With RRIRWRPPRLPRPRPRPVITPRP, the “shrunken log2 fold change” value is 0.362.
Regarding RRIRFRPPRLPRPRPRPEGTPRP, the “shrunken log2 fold change” value stood at 0.055.
With RRIRLRPPRLPRPRPRPAPPPRP, the “shrunken log2 fold change” value was found to be 0.676.
On to RRIRHRPPRLPRPRPRPFMRPRP, for which the “shrunken log2 fold change” value is -0.42.
With RRIRGRPPRLPRPRPRPDFIPRP, the “shrunken log2 fold change” value came to 0.157.
For RRIRNRPPRLPRPRPRPCCAPRP, the “shrunken log2 fold change” value was -0.0874.
Take RRIRLRPPRLPRPRPRPPCIPRP: the “shrunken log2 fold change” value is -0.519.
For RRIRCRPPRLPRPRPRPFSTPRP, the “shrunken log2 fold change” value is -0.472.
Turning to RRIRARPPRLPRPRPRPHMPPRP, the “shrunken log2 fold change” value was -0.419.
Turning to RRIRDRPPRLPRPRPRPEYNPRP, the “shrunken log2 fold change” value was -0.116.
With RRIRQRPPRLPRPRPRPLRQPRP, the “shrunken log2 fold change” value was 0.0855.
Regarding RRIRTRPPRLPRPRPRPRLQPRP, the “shrunken log2 fold change” value turned out to be 0.123.
On to RRIRERPPRLPRPRPRPMFLPRP, for which the “shrunken log2 fold change” value was -0.206.
Take RRIRCRPPRLPRPRPRPVNFPRP: the “shrunken log2 fold change” value was -0.484.
The figure for RRIRVRPPRLPRPRPRPSYKPRP is -0.581; for RRIRIRPPRLPRPRPRPLGAPRP it is 0.241; for RRIRARPPRLPRPRPRPSVSPRP it is -0.457.
Then RRIRERPPRLPRPRPRPSSGPRP, with -0.648.
Then RRIRVRPPRLPRPRPRPFYRPRP, with -0.576.
As for RRIRYRPPRLPRPRPRPNQNPRP, the “shrunken log2 fold change” value was -0.967.
As for RRIRVRPPRLPRPRPRPMTQPRP, the “shrunken log2 fold change” value is 0.181.
Regarding RRIRWRPPRLPRPRPRPRCLPRP, the “shrunken log2 fold change” value was 0.164.
With RRIRIRPPRLPRPRPRPFVQPRP, the “shrunken log2 fold change” value is -0.634.
In the case of RRIRNRPPRLPRPRPRPDDLPRP, the “shrunken log2 fold change” value is -0.000687.
As for RRIRRRPPRLPRPRPRPFCMPRP, the “shrunken log2 fold change” value is 0.084.
On to RRIRIRPPRLPRPRPRPCTSPRP, for which the “shrunken log2 fold change” value was -0.438.
For the sequence RRIRSRPPRLPRPRPRPDMDPRP, the “shrunken log2 fold change” value is -0.201.
Take RRIRCRPPRLPRPRPRPQGHPRP: the “shrunken log2 fold change” value was -0.0916.
With RRIRPRPPRLPRPRPRPWDMPRP, the “shrunken log2 fold change” value is -0.0229.
Take RRIRARPPRLPRPRPRPLFQPRP: the “shrunken log2 fold change” value turned out to be 0.0426.
On to RRIRMRPPRLPRPRPRPACFPRP, for which the “shrunken log2 fold change” value worked out at 0.421.
Then RRIRCRPPRLPRPRPRPQDCPRP, with -0.241.
RRIRIRPPRLPRPRPRPGGHPRP: the “shrunken log2 fold change” value was -0.0701.
For the sequence RRIRPRPPRLPRPRPRPAFYPRP, the “shrunken log2 fold change” value was -0.00911.
As to RRIRERPPRLPRPRPRPRQIPRP, the “shrunken log2 fold change” value is 0.0409.
In the case of RRIRCRPPRLPRPRPRPLVPPRP, the “shrunken log2 fold change” value was -0.202.
Turning to RRIRQRPPRLPRPRPRPCDKPRP, the “shrunken log2 fold change” value turned out to be 0.244.
On to RRIRPRPPRLPRPRPRPNLKPRP, for which the “shrunken log2 fold change” value was -0.0156.
Consider RRIRERPPRLPRPRPRPFFHPRP, for which the “shrunken log2 fold change” value was -0.264.
Consider RRIRCRPPRLPRPRPRPPQEPRP, for which the “shrunken log2 fold change” value was -0.069.
For the sequence RRIRHRPPRLPRPRPRPKGLPRP, the “shrunken log2 fold change” value amounted to 0.0749.
Regarding RRIRTRPPRLPRPRPRPIGKPRP, the “shrunken log2 fold change” value came to 0.0128.
As to RRIRHRPPRLPRPRPRPCNEPRP, the “shrunken log2 fold change” value was -0.00194.
In the case of RRIRWRPPRLPRPRPRPGRDPRP, the “shrunken log2 fold change” value was found to be 0.122.
As to RRIRFRPPRLPRPRPRPGGCPRP, the “shrunken log2 fold change” value was 0.432.
For the sequence RRIRKRPPRLPRPRPRPCLDPRP, the “shrunken log2 fold change” value is -0.173.
In the case of RRIRRRPPRLPRPRPRPSYLPRP, the “shrunken log2 fold change” value was -0.36.
As for RRIRERPPRLPRPRPRPTHMPRP, the “shrunken log2 fold change” value was -0.182.
Then RRIRKRPPRLPRPRPRPSSYPRP, with 0.0295; and RRIRHRPPRLPRPRPRPYQHPRP, with -0.0148; and RRIRIRPPRLPRPRPRPMINPRP, with -0.714.
As for RRIRGRPPRLPRPRPRPRNHPRP, the “shrunken log2 fold change” value came to 0.563.
Take RRIRPRPPRLPRPRPRPMYTPRP: the “shrunken log2 fold change” value was -0.236.
On to RRIRMRPPRLPRPRPRPVCGPRP, for which the “shrunken log2 fold change” value turned out to be 0.898.
Turning to RRIRKRPPRLPRPRPRPLALPRP, the “shrunken log2 fold change” value is 0.536.
On to RRIRFRPPRLPRPRPRPNQCPRP, for which the “shrunken log2 fold change” value is -0.511.
Take RRIRCRPPRLPRPRPRPDHNPRP: the “shrunken log2 fold change” value is -0.239.
Turning to RRIRPRPPRLPRPRPRPKHWPRP, the “shrunken log2 fold change” value was 0.273.
As to RRIRARPPRLPRPRPRPHWPPRP, the “shrunken log2 fold change” value worked out at 0.233.
